± gives the standard deviation of the averaged measurements.
Tested on: ATP
Test: switch fluorescence ratio, 500 uM ATP over buffer (Cy3 cluster intensity, sum of 5 cycles each) (fold (ratio)); higher = stronger signal-on switching upon ATP binding; sequences stand for … in TCGTCGGCAGCGTCAGATGTGTATAAGAGACAGTTTTTTTTTTTTTTTTTTTTTTTTT…TC
Details: aptamer strand: ATP DNA aptamer (quencher-CACCTGGGGGAGTATTGCGGAGGAAGG + anchor), 100 nM annealed; ATP concentration: 500 uM
Procedure, shortened: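 The fluorescence ratio divides summed target-cycle Cy3 intensity by summed buffer-cycle Cy3 intensity for each cluster and is averaged per switch-domain sequence. Cy3-labelled switching-strand clusters on a modified Illumina MiSeq flow-cell were annealed to 100 nM quencher-labelled ATP aptamer, then imaged in selection buffer and again after 15 min with 500 uM ATP at 22 °C. Five such cycles were run, with NaOH stripping and re-annealing between them, and clusters outside 100-1000 RFU were excluded.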
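Note: ATP exposure 15 min at 22 °C before imaging.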

Sequence | switch fluorescence ratio
ATTTGAGCGT | 1.02 ± 0.014
ATTTGAGTTG | 0.965 ± 0.01
ATTTGATAGT | 1.007 ± 0.0052
ATTTGCATAC | 2.62 ± 0.39
ATTTGCATGC | 1 ± 0.012
ATTTGCCGGG | 1.031 ± 0.0081
ATTTGCGAAT | 0.966 ± 0.039
ATTTGCGAGG | 1.01 ± 0.017
ATTTGCGGCT | 0.958 ± 0.062
ATTTGCGGTG | 1.01 ± 0.019
ATTTGCTGCG | 0.947 ± 0.087
ATTTGGAAAG | 0.999 ± 0.021
ATTTGGATGC | 1.01 ± 0.042
ATTTGGGACT | 1.03 ± 0.036
ATTTGGGAGA | 0.978 ± 0.042
ATTTGGGGGA | 0.999 ± 0.029
ATTTGGGGGC | 0.973 ± 0.057
ATTTGGGGGG | 1 ± 0.047
ATTTGGGTGA | 1.03 ± 0.047
ATTTGGGTGG | 0.987 ± 0.041
ATTTGGGTGT | 1.05 ± 0.02
ATTTGGTATC | 0.997 ± 0.017
ATTTGGTCGT | 0.979 ± 0.048
ATTTGGTGTT | 1.01 ± 0.032
ATTTGTAAGA | 0.9927 ± 0.0045

Sequence | switch fluorescence ratio
ATTTGTCCGT | 1.03 ± 0.018
ATTTGTGGTT | 0.9752 ± 0.0085
ATTTGTTTTC | 0.953 ± 0.013
ATTTTAAAGA | 1.009 ± 0.0062
ATTTTAAGGG | 1.003 ± 0.0042
ATTTTAATGG | 0.9907 ± 0.0036
ATTTTAATTG | 1.02 ± 0.016
ATTTTAGATG | 1 ± 0.025
ATTTTAGGGA | 0.98918 ± 0.00041
ATTTTAGGGG | 0.983 ± 0.035
ATTTTAGTTT | 1 ± 0.016
ATTTTATCTC | 1.22 ± 0.27
ATTTTCGGTT | 0.997 ± 0.034
ATTTTCGTTT | 0.945 ± 0.024
ATTTTGAAAG | 1.01 ± 0.022
ATTTTGATAC | 1.01 ± 0.044
ATTTTGATAT | 1.01 ± 0.018
ATTTTGATGT | 0.995 ± 0.051
ATTTTGCGTT | 0.998 ± 0.031
ATTTTGGGGC | 1.03 ± 0.018
ATTTTGGTAT | 1.01 ± 0.027
ATTTTGGTGA | 1 ± 0.035
ATTTTGTGGG | 1 ± 0.023
ATTTTTAAAC | 0.992 ± 0.066
ATTTTTAAGG | 0.995 ± 0.021

Sequence | switch fluorescence ratio
ATTTTTAATC | 1.06 ± 0.14
ATTTTTAGAC | 1.03 ± 0.022
ATTTTTATAC | 1.02 ± 0.021
ATTTTTCTAT | 0.987 ± 0.027
ATTTTTCTGA | 1 ± 0.019
ATTTTTGCGT | 1.01 ± 0.041
ATTTTTGCTT | 0.994 ± 0.019
ATTTTTGGAG | 0.9792 ± 0.0053
ATTTTTGGCC | 1.02 ± 0.035
ATTTTTGTCT | 0.983 ± 0.06
ATTTTTGTTT | 0.985 ± 0.023
ATTTTTTAAA | 0.994 ± 0.027
ATTTTTTAGT | 0.983 ± 0.013
ATTTTTTGGA | 1.01 ± 0.026
ATTTTTTGTG | 0.9732 ± 0.0082
ATTTTTTTCC | 1.38 ± 0.57
ATTTTTTTTG | 0.987 ± 0.023
ATTTTTTTTT | 1 ± 0.026
CAAAAAGGCG | 1.03 ± 0.054
CAAAAAGTAG | 1.014 ± 0.0062
CAAAACAGGT | 1.01 ± 0.032
CAAAAGGAAA | 0.992 ± 0.022
CAAAATAAGA | 1.01 ± 0.017
CAAAATACGG | 1.07 ± 0.052
CAAACATTTT | 0.9795 ± 0.0044

Sequence | switch fluorescence ratio
CAAACTCCCA | 1.16 ± 0.18
CAAAGCTATT | 1.008 ± 0.006
CAAAGCTTGA | 1.01 ± 0.036
CAAAGGGAAA | 1.02 ± 0.033
CAAAGGGCGG | 0.9985 ± 0.0012
CAAAGGTTAG | 1.0209 ± 0.001
CAAAGTACAA | 1.17 ± 0.02
CAAAGTGTGG | 0.989 ± 0.054
CAAAGTTGGT | 0.994 ± 0.05
CAAATAAACC | 1.03 ± 0.018
CAAATAACGT | 0.9893 ± 0.0097
CAAATAGATG | 1 ± 0.029
CAAATCCTAT | 1.01 ± 0.013
CAAATGGTCT | 1 ± 0.013
CAAATTGGGT | 0.996 ± 0.04
CAAATTTGAT | 1.03 ± 0.027
CAAATTTGGG | 1.02 ± 0.014
CAAATTTGTC | 0.994 ± 0.02
CAACAACTTC | 1.01 ± 0.0034
CAACAGGGGT | 1.14 ± 0.23
CAACATGTTT | 1.02 ± 0.03
CAACCGCCTT | 1.46 ± 0.12
CAACCTGAAC | 2.39 ± 0.2
CAACGAGTGG | 1.012 ± 0.0028
CAACGGGGGT | 1.03 ± 0.018

Sequence | switch fluorescence ratio
CAACGTAGGT | 1.05 ± 0.013
CAAGAAAAGT | 0.978 ± 0.048
CAAGAGGGTC | 1.04 ± 0.067
CAAGAGTATT | 0.995 ± 0.022
CAAGAGTGC | 1.025 ± 0.0091
CAAGATCGGC | 1.01 ± 0.079
CAAGATGGGA | 0.963 ± 0.082
CAAGATGTTG | 0.987 ± 0.047
CAAGCCGGGG | 0.979 ± 0.021
CAAGCGTGCG | 0.98 ± 0.012
CAAGGAAGGA | 0.9967 ± 0.005
CAAGGAGTCT | 1.02 ± 0.035
CAAGGATACA | 1 ± 0.034
CAAGGATTTA | 1.02 ± 0.044
CAAGGGAGGG | 0.991 ± 0.047
CAAGGGGCAC | 1.02 ± 0.02
CAAGGGGGCC | 1.14 ± 0.18
CAAGGGGTAA | 0.9524 ± 0.0052
CAAGGGGTGG | 0.996 ± 0.019
CAAGGGTGGT | 1.03 ± 0.023
CAAGGGTGTG | 0.988 ± 0.012
CAAGTCTAGA | 0.995 ± 0.026
CAAGTGAAGC | 0.9539 ± 0.005
CAAGTGAGAA | 1.02 ± 0.049
CAAGTGATAT | 1.05 ± 0.014

Sequence | switch fluorescence ratio
CAAGTGCTGT | 0.98 ± 0.033
CAAGTGTGAG | 0.985 ± 0.013
CAAGTTCAAA | 1.013 ± 0.0055
CAAGTTGACC | 1.01 ± 0.046
CAAGTTGGCT | 0.987 ± 0.039
CAAGTTGTTA | 0.964 ± 0.029
CAATAGACGG | 1.04 ± 0.046
CAATAGCACG | 1.03 ± 0.027
CAATAGGGGA | 1.01 ± 0.017
CAATATGTTT | 0.991 ± 0.051
CAATATTAGT | 0.996 ± 0.024
CAATCTGGGA | 0.978 ± 0.019
CAATCTTTAA | 1.02 ± 0.034
CAATGCGTAT | 1.01 ± 0.07
CAATGGAGAG | 1 ± 0.018
CAATGGAGGC | 0.976 ± 0.072
CAATGGAGGG | 0.992 ± 0.033
CAATGGCCTC | 1 ± 0.047
CAATGGGGGC | 1.02 ± 0.045
CAATGGTTAG | 0.998 ± 0.026
CAATGTAGGG | 1.004 ± 0.0077
CAATGTAGGT | 1.02 ± 0.02
CAATTACGCA | 1.186 ± 0.00065
CAATTAGCAT | 1.03 ± 0.017
CAATTAGGTC | 0.994 ± 0.024

Sequence | switch fluorescence ratio
CAATTATATG | 0.9961 ± 0.0071
CAATTATGTA | 0.963 ± 0.016
CAATTCATGG | 0.992 ± 0.073
CAATTGCAGG | 1.01 ± 0.014
CAATTGGGGT | 1.03 ± 0.06
CACAAACCAG | 1.34 ± 0.37
CACAATATGT | 1.07 ± 0.078
CACAATCGGG | 1.005 ± 0.0088
CACACGTACA | 1.769 ± 0.01
CACACGTGGT | 0.9908 ± 0.0036
CACAGAGGGG | 1.02 ± 0.028
CACAGCAGCG | 1.048 ± 0.0029
CACAGCTAAA | 1.09 ± 0.018
CACAGGCCAA | 1.2 ± 0.029
CACAGGGAGT | 1.03 ± 0.021
CACATGCTCG | 1.05 ± 0.076
CACATGCTGT | 0.995 ± 0.038
CACATGTGCC | 1.01 ± 0.021
CACATTTTTG | 0.995 ± 0.023
CACCATCTTG | 0.987 ± 0.019
CACCCCGGTT | 1.12 ± 0.051
CACCCGGGCA | 1.07 ± 0.06
CACCCTTTTC | 1.02 ± 0.024
CACCGCGTCG | 1.21 ± 0.017
CACCGGCTTT | 1.1 ± 0.14

Sequence | switch fluorescence ratio
CACCGGTGTT | 1.02 ± 0.032
CACCGTGTGG | 1.006 ± 0.0088
CACCTAATGT | 1.06 ± 0.015
CACCTGTCCG | 1.06 ± 0.02
CACGAAGGGT | 1.02 ± 0.018
CACGACATTG | 1.02 ± 0.018
CACGAGATAA | 1.11 ± 0.079
CACGCAAGTG | 1.03 ± 0.018
CACGCACATG | 1.5 ± 0.076
CACGCGGGGG | 1.03 ± 0.015
CACGGAAGCG | 1.05 ± 0.032
CACGGCAGCT | 1.09 ± 0.02
CACGGCCGGA | 1.03 ± 0.052
CACGGCTATG | 1.06 ± 0.046
CACGGGGGAA | 1.03 ± 0.029
CACGGTGGCT | 1.01 ± 0.03
CACGGTGGGT | 0.9898 ± 0.0079
CACGGTTTGC | 1.01 ± 0.021
CACGTAAAAA | 1.16 ± 0.19
CACGTATTGG | 1.11 ± 0.017
CACGTGGGCA | 1.01 ± 0.048
CACGTTGAAC | 1.11 ± 0.034
CACTAAGGGA | 0.996 ± 0.014
CACTAATTTT | 1.03 ± 0.019
CACTAGAACC | 1.0319 ± 8.9e-05

— the supplement of paper PMC10126150
